# T1: MrkH (tag removed) (Klebsiella pneumoniae) (UniProt G3FT00)
# T1 sequence: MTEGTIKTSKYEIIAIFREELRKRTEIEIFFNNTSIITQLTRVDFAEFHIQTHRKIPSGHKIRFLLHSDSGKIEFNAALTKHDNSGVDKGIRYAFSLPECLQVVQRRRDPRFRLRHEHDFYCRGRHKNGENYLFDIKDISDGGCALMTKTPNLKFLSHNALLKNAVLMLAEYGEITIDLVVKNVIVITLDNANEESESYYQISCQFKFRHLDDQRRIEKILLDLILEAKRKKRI
# T2: MBP-MrkH (Klebsiella pneumoniae) (UniProt G3FT00)
# T2 sequence: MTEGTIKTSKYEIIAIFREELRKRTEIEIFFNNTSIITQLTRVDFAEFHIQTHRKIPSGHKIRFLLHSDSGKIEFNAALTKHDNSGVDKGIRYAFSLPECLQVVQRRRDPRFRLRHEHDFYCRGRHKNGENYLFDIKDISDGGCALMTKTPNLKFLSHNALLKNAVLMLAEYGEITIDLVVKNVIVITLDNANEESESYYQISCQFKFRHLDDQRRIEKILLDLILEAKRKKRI
# T3: MBP-MrkH-PilZ domain (Klebsiella pneumoniae) (UniProt G3FT00)
# T3 sequence: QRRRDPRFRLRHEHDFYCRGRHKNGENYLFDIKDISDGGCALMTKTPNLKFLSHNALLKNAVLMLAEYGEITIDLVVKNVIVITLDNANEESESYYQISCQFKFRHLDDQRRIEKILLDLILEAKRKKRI
# Key:
# MrkH = biological target: T4, MrkH (Klebsiella pneumoniae, UniProt G3FT00); assay: ITC; type: binding
# T4 construct: full-length MrkH, YcgR-N plus PilZ domains; monomer; recombinant
# MrkH^105-end = biological target: T5, MrkH^105-end (Klebsiella pneumoniae, UniProt G3FT00); assay: ITC; type: binding
# T5 construct: PilZ domain with interdomain linker, residues 105-end
# Description: ITC on MrkH^105-end | MrkH^105-end also binds to c-di-GMP efficiently
# [1] = biological target: T1, MrkH (tag removed) (Klebsiella pneumoniae); assay: fluorescence polarization; details: EMSA: 50 mM Tris pH 8.0, 100 mM NaCl, 5 mM MgCl2, 20 ul, 100 min on ice; FP: 10 nM FAM-DNA, 25 C, buffer not fully given. Fig. 2G Kd values (High, 10.3, High …)
# [2] = biological target: T2, MBP-MrkH (Klebsiella pneumoniae); assay: EMSA; details: EMSA: 50 mM Tris pH 8.0, 100 mM NaCl, 5 mM MgCl2, 20 ul, 100 min on ice; FP: 10 nM FAM-DNA, 25 C, buffer not fully given. Fig. 2G Kd values (High, 10.3, High …)
# [3] = biological target: T3, MBP-MrkH-PilZ domain (Klebsiella pneumoniae); assay: EMSA; details: EMSA: 50 mM Tris pH 8.0, 100 mM NaCl, 5 mM MgCl2, 20 ul, 100 min on ice; FP: 10 nM FAM-DNA, 25 C, buffer not fully given. Fig. 2G Kd values (High, 10.3, High …)
# MrkH (tag removed) [4] = biological target: T6, MrkH (tag removed) (Klebsiella pneumoniae, UniProt G3FT00 1-234); assay: fluorescence polarization; EMSA: 50 mM Tris pH 8.0, 100 mM NaCl, 5 mM MgCl2, 20 ul, 100 min on ice; FP: 10 nM FAM-DNA, 25 C, buffer not fully given. Fig. 2G Kd values (High, 10.3, High, 7.5, 24.3, 10.6, 12.7, High) cannot be assigned to mutants. PilZ mutants of Fig. S3B (all lose mrkA binding in EMSA) are not individually named in the material; details: protein: recombinant; tags: none (tag removed for FP); label: 5'-FAM; blunt
# MrkH (tag removed) [5] = biological target: T6, MrkH (tag removed); assay: fluorescence polarization; no c-di-GMP; EMSA: 50 mM Tris pH 8.0, 100 mM NaCl, 5 mM MgCl2, 20 ul, 100 min on ice; FP: 10 nM FAM-DNA, 25 C, buffer not fully given. Fig. 2G Kd values (High, 10.3, High, 7.5, 24.3, 10.6, 12.7, High) cannot be assigned to mutants. PilZ mutants of Fig. S3B (all lose mrkA binding in EMSA) are not individually named in the material; details: protein: recombinant; tags: none (tag removed for FP); label: 5'-FAM; blunt
# MrkH K207A = MrkH K207A (Klebsiella pneumoniae, UniProt G3FT00 1-234, K207A); assay: fluorescence polarization; little effect of mutation; EMSA: 50 mM Tris pH 8.0, 100 mM NaCl, 5 mM MgCl2, 20 ul, 100 min on ice; FP: 10 nM FAM-DNA, 25 C, buffer not fully given. Fig. 2G Kd values (High, 10.3, High, 7.5, 24.3, 10.6, 12.7, High) cannot be assigned to mutants. PilZ mutants of Fig. S3B (all lose mrkA binding in EMSA) are not individually named in the material; details: protein: recombinant; tags: none; label: 5'-FAM; blunt
# MrkH K154A = MrkH K154A (Klebsiella pneumoniae, UniProt G3FT00 1-234, K154A); assay: as above; details: protein: recombinant; tags: none; label: 5'-FAM; blunt
# MrkH K163A = MrkH K163A (Klebsiella pneumoniae, UniProt G3FT00 1-234, K163A); assay: as above; details: protein: recombinant; tags: none; label: 5'-FAM; blunt
# MrkH K89A = MrkH K89A (Klebsiella pneumoniae, UniProt G3FT00 1-234, K89A); assay: as above; details: protein: recombinant; tags: none; label: 5'-FAM; blunt
molecule,measurement,setting,value
Nc1nc2c(ncn2[C@@H]2O[C@@H]3CO[P@](=O)(O)O[C@H]4[C@@H](O)[C@H](n5cnc6c(=O)[nH]c(N)nc65)O[C@@H]4CO[P@](=O)(O)O[C@H]3[C@H]2O)c(=O)[nH]1 [c-di-GMP],Kd,MrkH,~0.24 µM
same,Kd,MrkH^105-end,0.45 ± 0.1 µM
GCTGCGCTGTAAACAACCACCCTCGCGTTTTCATCTATCAATGGCTGTTTATTAATAGTCGATGGTTATCTGTTATATAACTTAATGAAACGTGAACAAATGTATATTTGTCGGCGAATAAATAGCATTCTTTGACGCCGATAGCACCAGCGAACTTATATTTTTAGGTTCGTTACCTGACGCCTTAAATATTGCGGCTCCCGGTCAGTCGAAGATTCTATTAGCAGTGGCATAAATCAGCATCGCCTGATGTTTCTGGTTCTATGCGAATTCACAGTGTGCT (double strand) [PmrkA -117 to +166 (FAM)],Kd,[1],3.07 µM
ACTTAAGTTTTTATCCTTCGACCGGTCTCCAGCTTGGAGGCCGTTGTCGTTTTTGTCATGACCAAAATTCGAAACTCTTGATTACAGGAAATACAATATCAAATTCCAAGTTTATACATATCAATCTGGCTGCAAAGATAGTCAATAACATCAAACGCTCATAAAAACATCTGATTAACCCAATCAGAATGTTGCTATTGCTATAAGAAAAATCAAACGCCTCACGACAACTATTTACAAGGGATGCAT (double strand) [mrkHI promoter 250 bp],binding,[2],binds
same,binding,[3],binds
80 bp random sequence (FAM) (dsDNA) DNA 1: ATAAATAGCATTCTTTGACGCCGATAGCACCAGCGAACTTATATTTTTAGGTTCGTTACCTGACGCCTTAAATATTGCGG DNA 2: CCGCAATATTTAAGGCGTCAGGTAACGAACCTAAAAATATAAGTTCGCTGGTGCTATCGGCGTCAAAGAATGCTATTTAT,Kd,MrkH (tag removed) [4],7.45 ± 2.81 µM
PmrkA -117 to -37 (FAM) (dsDNA) DNA 1: GCTGCGCTGTAAACAACCACCCTCGCGTTTTCATCTATCAATGGCTGTTTATTAATAGTCGATGGTTATCTGTTATATAA DNA 2: TTATATAACAGATAACCATCGACTATTAATAAACAGCCATTGATAGATGAAAACGCGAGGGTGGTTGTTTACAGCGCAGC,Kd,MrkH (tag removed) [5],8.24 ± 2.23 µM
same,binding result,MrkH K207A,binds
same,binding result,MrkH K154A,binds
same,binding result,MrkH K163A,binds
same,binding result,MrkH K89A,binds

# Source: paper PMC5055493, “The PilZ domain of MrkH represents a novel DNA binding motif” (Protein & Cell, 2016)
